Measured values taken from IntAct's records for PubMed 24879152.

B1: Glycogen synthase kinase-3 alpha (Homo sapiens), P49840 (parent)
chain: MSGGGPSGGGPGGSGRARTSSFAEPGGGGGGGGGGPGGSASGPGGTGGGKASVGAMGGGVGASSSGGGPGGSGGGGSGGPGAGTSFPPPGVKLGRDSGKVTTVVATLGQGPERSQEVAYTDIKVIGNGSFGVVYQARLAETRELVAIKKVLQDKRFKNRELQIMRKLDHCNIVRLRYFFYSSGEKKDELYLNLVLEYVPETVYRVARHFTKAKLTIPILYVKVYMYQLFRSLAYIHSQGVCHRDIKPQNLLVDPDTAVLKLCDFGSAKQLVRGEPNVSYICSRYYRAPELIFGATDYTSSIDVWSAGCVLAELLLGQPIFPGDSGVDQLVEIIKVLGTPTREQIREMNPNYTEFKFPQIKAHPWTKVFKSRTPPEAIALCSSLLEYTPSSRLSPLEACAHSFFDELRCLGTQLPNNRPLPPLFNFSAGELSIQPSLNAILIPPHLRSPAGTTTLTPSSQALTETPTSSDWQSTDATPTLTNSS
partner: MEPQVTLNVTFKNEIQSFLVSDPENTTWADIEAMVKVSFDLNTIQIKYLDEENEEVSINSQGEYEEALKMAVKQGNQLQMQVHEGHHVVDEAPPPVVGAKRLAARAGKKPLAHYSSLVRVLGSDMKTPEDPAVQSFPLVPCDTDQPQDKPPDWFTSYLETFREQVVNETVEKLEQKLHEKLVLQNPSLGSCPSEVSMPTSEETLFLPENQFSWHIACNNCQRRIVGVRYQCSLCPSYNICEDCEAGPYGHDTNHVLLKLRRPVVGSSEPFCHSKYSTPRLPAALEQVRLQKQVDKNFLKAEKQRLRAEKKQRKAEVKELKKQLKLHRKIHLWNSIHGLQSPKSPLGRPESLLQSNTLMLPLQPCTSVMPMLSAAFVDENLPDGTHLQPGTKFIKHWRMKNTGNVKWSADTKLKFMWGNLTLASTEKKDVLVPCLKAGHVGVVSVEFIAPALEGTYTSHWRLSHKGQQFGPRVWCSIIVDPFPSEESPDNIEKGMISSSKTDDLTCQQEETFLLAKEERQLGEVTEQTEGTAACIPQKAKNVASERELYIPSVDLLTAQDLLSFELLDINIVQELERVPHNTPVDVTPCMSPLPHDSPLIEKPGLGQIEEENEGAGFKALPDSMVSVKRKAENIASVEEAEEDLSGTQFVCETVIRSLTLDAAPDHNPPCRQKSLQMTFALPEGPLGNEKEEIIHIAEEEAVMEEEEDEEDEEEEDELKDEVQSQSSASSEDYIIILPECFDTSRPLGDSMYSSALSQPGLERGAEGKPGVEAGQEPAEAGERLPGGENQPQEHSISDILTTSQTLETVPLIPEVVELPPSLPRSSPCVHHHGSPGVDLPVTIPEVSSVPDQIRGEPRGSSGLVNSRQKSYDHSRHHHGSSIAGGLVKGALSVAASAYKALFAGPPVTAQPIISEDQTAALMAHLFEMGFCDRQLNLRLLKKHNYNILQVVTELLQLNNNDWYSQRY
B2: Next to BRCA1 gene 1 protein (Homo sapiens), Q14596 (parent)
chain: B1 partner

Variants of: B1
Conditions: with nbr1_human NBR1, Q14596

effect of a mutation on the interaction	Variant
with no effect	S21A
disrupting interaction strength	K148A

Variants of: B2
Conditions: with gsk3a_human GSK3A

effect of a mutation on the interaction	Variant
decreasing interaction strength	T581A;T586A;S590A
with no effect	S590A
with no effect	T586A;S590A
decreasing interaction strength	T581A
with no effect	T586A

Variants of: B2
Conditions: with gsk3b_human GSK3B

effect of a mutation on the interaction	Variant
disrupting interaction strength	T581A;T586A;S590A
with no effect	T581A

Variants of: B2
Conditions: with ubc_human UBC

effect of a mutation on the interaction	Variant
with no effect	T586A;S590A
with no effect	T586E;S590E

Variants of: B2
Conditions: with mlp3b_human MAP1LC3B

effect of a mutation on the interaction	Variant
with no effect	T586A;S590A
with no effect	T586E;S590E

Variants of: B2
Conditions: with gbrap_human GABARAP

effect of a mutation on the interaction	Variant
with no effect	T586A;S590A
with no effect	T586E;S590E

Variants of: B2
Conditions: with mlp3b_mouse Map1lc3b

effect of a mutation on the interaction	Variant
with no effect	T586A;S590A
with no effect	T586E;S590E
